Here are results for two molecules from US20120316071A1 (published 2012).

For assay [1], the target named is T1, rHuman P-Cadherin/Fc Chimera, CF (R&D Systems Cat#861-PC) (human, UniProt P22223 108-654).
T1 construct: Bought recombinant protein; not shown: Fc portion of the purchased chimera
Put plainly: ECL Multispot (MSD), antigen spotted on plate, 10 nM Fab; blank spot of this well 214.

Assay [2] deals with T2, rHuman Erythropoietin R/Fc Chimera, CF (R&D Systems Cat#963-ER) (human, UniProt P19235 25-250).
T2 construct: Bought recombinant protein; also called EPO R; EPO R/Fc; not shown: Fc portion of the purchased chimera
T2 sequence (looked up): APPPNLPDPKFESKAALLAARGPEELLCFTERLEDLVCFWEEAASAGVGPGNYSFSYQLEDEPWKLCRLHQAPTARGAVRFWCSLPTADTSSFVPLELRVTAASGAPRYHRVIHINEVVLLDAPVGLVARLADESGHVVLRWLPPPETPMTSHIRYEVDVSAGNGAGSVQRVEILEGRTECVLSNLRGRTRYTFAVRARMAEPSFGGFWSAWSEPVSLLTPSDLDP
The assay is described as above.

In assay [3] the target is T3, rHuman ErbB2/Fc Chimera, CF (R&D Systems Cat#1129-ER) (human, UniProt P04626 23-652).
T3 construct: Bought recombinant protein; also called human epidermal growth factor 2 receptor; not shown: Fc portion of the purchased chimera
The assay is described as above.

Assay [4] has as its target T4, rHuman EGF R/Fc Chimera, CF (R&D Systems Cat#344-ER) (human, UniProt P00533 25-645).
T4 construct: Bought recombinant protein; also called epidermal growth factor receptor; not shown: Fc portion of the purchased chimera
The description is as above.

The target in assay [5] is T5, rHuman HGF R/c-MET/Fc Chimera, CF (R&D Systems Cat#358-MT/CF) (human, UniProt P08581 25-932).
T5 construct: Bought recombinant protein; also called HGF R/Fc; hepatocyte growth factor receptor; not shown: Fc portion of the purchased chimera
The assay is described as above.

Assay [6] has as its target T6, rHuman Notch-1/Fc Chimera, CF (R&D Systems Cat#3647-TK) (human, UniProt P46531 19-526).
T6 construct: Bought recombinant protein; the chimera holds only a part of it; not shown: Fc portion of the purchased chimera
Described as above.

Assay [7] has as its target T7, rHuman CD44/Fc Chimera, CF (R&D Systems Cat#3660-CD) (human, UniProt P16070 21-220).
T7 construct: Bought recombinant protein; not shown: Fc portion of the purchased chimera
The description is as above.

In assay [8] the target is T8, rHuman IGF-1 sR, CF (R&D Systems Cat#391-GR) (human, UniProt P08069 31-932).
T8 construct: Bought recombinant soluble receptor; The column head prints only 'IGF-1'; also called insulin-like growth factor-1 soluble receptor
The description is as above.

Assay [9] addresses T1, rHuman P-Cadherin/Fc Chimera, CF (R&D …). The experiment in a line: ECL Multispot (MSD), antigen spotted on plate, 10 nM Fab; blank spot of this well 306.
For assay [10], the target named is T2, rHuman Erythropoietin R/Fc Chimera, CF …. The assay is described as above.
For assay [11], the target named is T3, rHuman ErbB2/Fc Chimera, CF (R&D …). Described as above.
Assay [12] has as its target T4, rHuman EGF R/Fc Chimera, CF (R&D …). The assay is described as above.
For assay [13], the target named is T5, rHuman HGF R/c-MET/Fc Chimera, CF (R&D …). The assay is described as above.
The target of assay [14] is T6, rHuman Notch-1/Fc Chimera, CF (R&D …). Described as above.
Assay [15] concerns the target T7, rHuman CD44/Fc Chimera, CF (R&D Systems …). Described as above.
Assay [16] addresses T8, rHuman IGF-1 sR, CF (R&D Systems …). Described as above.
In assay [17] the target is T9, rHuman IGF-1 sR, CF (R&D Systems Cat#391-GR) (human, UniProt P08069 31-932).
T9 construct: Bought soluble receptor; also called insulin-like growth factor-1 soluble receptor
Put plainly: ECL Multispot (MSD), 10 nM Fab; blank 219.

Assay [18] deals with T10, rHuman P-Cadherin/Fc Chimera, CF (R&D Systems Cat#861-PC) (human, UniProt P22223 108-654).
T10 construct: Bought reagent; Fc part of the bought chimera not given
The experiment in a line: ECL Multispot (MSD), 10 nM Fab; blank 219.

Assay [19] deals with T11, rHuman Erythropoietin R/Fc Chimera, CF (R&D Systems Cat#963-ER) (human, UniProt P19235 25-250).
T11 construct: Bought reagent; also called EPO R; EPO R/Fc; Fc part of the bought chimera not given
T11 sequence (looked up): T2 sequence (looked up)
The experiment in a line: ECL Multispot (MSD), 10 nM Fab; blank 219.

Assay [20] has as its target T12, rHuman ErbB2/Fc Chimera, CF (R&D Systems Cat#1129-ER) (human, UniProt P04626 23-652).
T12 construct: Bought reagent; also called human epidermal growth factor 2 receptor; Fc part of the bought chimera not given
The experiment in a line: ECL Multispot (MSD), 10 nM Fab; blank 219.

The target in assay [21] is T13, rHuman EGF R/Fc Chimera, CF (R&D Systems Cat#344-ER) (human, UniProt P00533 25-645).
T13 construct: Bought reagent; also called epidermal growth factor receptor; Fc part of the bought chimera not given
The experiment in a line: ECL Multispot (MSD), 10 nM Fab; blank 219.

In assay [22] the target is T14, rHuman HGF R/c-MET/Fc Chimera, CF (R&D Systems Cat#358-MT/CF) (human, UniProt P08581 25-932).
T14 construct: Bought reagent; also called HGF R/Fc; hepatocyte growth factor receptor; Fc part of the bought chimera not given
Put plainly: ECL Multispot (MSD), 10 nM Fab; blank 219.

Assay [23] deals with T15, rHuman Notch-1/Fc Chimera, CF (R&D Systems Cat#3647-TK) (human, UniProt P46531 19-526).
T15 construct: Bought reagent; Fc part of the bought chimera not given
The experiment in a line: ECL Multispot (MSD), 10 nM Fab; blank 219.

Assay [24] addresses T16, rHuman CD44/Fc Chimera, CF (R&D Systems Cat#3660-CD) (human, UniProt P16070 21-220).
T16 construct: Bought reagent; Fc part of the bought chimera not given
The experiment in a line: ECL Multispot (MSD), 10 nM Fab; blank 219.

Positions count from the first letter of the chain named. Numbers in names are those of the source.

B1: Fab VH1-46_IGHD6-6*01_IGHJ1*01 S102A/S103P/S104F (APF) & L6_IGKJ1*01 (Fab, V domains shown)
VH: QVQLVQSGAEVKKPGASVKVSCKASGYTFTSYYMHWVRQAPGQGLEWMGIINPSGGSTSYAQKFQGRVTMTRDTSTSTVYMELSSLRSEDTAVYYCAREEYAPFSAEYFQHWGQGTLVTVSS
VL: not shown
notes: Tested as a Fab expressed in E. coli: the heavy chain from Plasmid A (CH1, His6 and Flag tags), the kappa light chain from Plasmid C (CL kappa); also called H:APF & L:wt; APF triple mutant
B1: the ECL signal amounted to 152 in assay [1]; 179 in [2]; 202 in [3]; 138 in assay [4]; 190 in assay [5]; 189 in assay [6]. Also, the ECL signal in assay [7] is 199; in assay [8] it was 190; in assay [9], 422; in [10], 312; in assay [11], 378; in assay [12] it was 277. Also, the ECL signal was determined as 317 in assay [13], 370 in [14], 262 in assay [15] and 207 in assay [16].

B2: Fab VH1-46_IGHD6-6*01_IGHJ1*01 S102A/S103P/S104F A106E & L6_IGKJ1*01 (Fab, V domains shown)
VH: B1 VH with A106E
VL: not shown
notes: Tested as a Fab (CH1 with His6/Flag tags, kappa CL); also called APF A106E
Consider B2, for which the ECL signal in [17] is 312; in assay [18], 308; in assay [19], 204; in [20] it was 189; in [21], 226; in assay [22], 212. Besides, the ECL signal amounted to 156 in assay [23] and 192 in assay [24].
